Data taken from patent publication US20160311925A1 (UNIVERSITY OF ROCHESTER, published 2016).

B1: anti-Amd mAb Amd1.6 (antibody, IgG1, V domains shown)
VH: QSGTVLARPGTSVKMSCKASGYSFTNYWMHWVRQRPGQGLEWIGSIYPGNSDTTYNQKFKDKAKLTAVTSASTAYMELSSLTNEDSAVYYCTGDDYSRFSYWGQGTLVTVSA
VL: SIVMTQTPKFLLVSAGDRLTITCKASQSVSNDVAWYQQKPGQSPKLLIYYTSNRYTGVPDRFTGSGYGTDFTFTISTVQAEDLAVYFCQQDYNSPWTFGGGTK
notes: Mouse hybridoma mAb (Fusion #1), IgG1; The variable domains are incomplete at the termini; also called mAb1.6
B2: anti-Amd mAb Amd1.1 (antibody, IgG1, V domains shown)
VH: QQSGAELVKPGASVKLSCTASGFNIKDTYIHWVKQRPEQGLEWIGRIDPANGITNYDPKFQGRATITADTSSNIAYLQLTSLTSEGTAVYYCARGGYLSPYAMDYWGQGTSVTVSS
VL: ENVLTQSPAIMSASLGEKVTMTCRASSSVNYMFWFQQKSDASPKLWIYYTSNLAPGVPARFSGSGSGNSYSLTISSMEGEDAATYYCQEFTSFPYTFG
B3: anti-Amd mAb Amd1.9 (antibody, V domains shown)
VH: VESGGGLVKPGGSLKLSCAASGFTFSSYAMSWVRQTPKKSLEWVASITSGGSAYYPDSVKGRFTISRDNARNILNLQMSSLRSEDTAMYYCARDDGYFDYWGQGTTLTVSS
VL: DIQMTQSPASLSVSVGETVTITCRTSENIFSNFAWYQQQPGKSPQLLVYGATNLADGVPSRFSGSGSGTQYSLKITSLQSEDFGSYYCQHFWGSPWTF
notes: Mouse hybridoma mAb (Fusion #1), IgG1; The variable domains are incomplete at the termini
B4: anti-Amd mAb Amd1.11 (antibody, V domains shown)
VH: QIQLVQSGPELKKPGETVKISCKASGYTFTNYGMNWVKQAPGKGLEWMGWINTYTGEPTYADDFKGRFAFSLETSASTAYLLINNLKNEDTATYFCARRDGYFDAMDYWGQGTSVTVSS
VL: DILLTQSPAILSVSPGERVSFSCRASQSIGTSIHWYQQRTNGSPRLLIKYASESISGIPSRFSGSGSGTDFTLSINSVESEDIADYYCQQSNSWPALTFG
notes: Mouse hybridoma mAb (Fusion #1), IgG1; The VL is incomplete at the C-terminus
B5: anti-Amd mAb Amd2.2 (antibody, V domains shown)
VH: ESGPELVKPGASVKISCKASGYTFTDYNMHWVRQSHGKSLEWIGYIYPYNGGTGYNQKFKSKATLTVDNSSSTAYMELRSLTSEDSAVYYCAREDGYYGYFDYWGQGTTLTGSS
VL: EIVLTQSPAITAASLGQKVTITCSASSSVNYMHWYQQKSGTSPKPWIYEISKLASGVPARFSGSGSGTSYSLTISSMEAEDAAIYYCQQWNYPLITFGAGTKLELK
notes: Mouse hybridoma mAb (Fusion #2), IgG1; The VH is incomplete at the N-terminus

Tests used:
His-AmdR1R2-B [1] = molecular target: T1, His-AmdR1R2-B (Staphylococcus aureus, UniProt Q5HH31 198-775); assay: cell-based or functional assay
T1 sequence: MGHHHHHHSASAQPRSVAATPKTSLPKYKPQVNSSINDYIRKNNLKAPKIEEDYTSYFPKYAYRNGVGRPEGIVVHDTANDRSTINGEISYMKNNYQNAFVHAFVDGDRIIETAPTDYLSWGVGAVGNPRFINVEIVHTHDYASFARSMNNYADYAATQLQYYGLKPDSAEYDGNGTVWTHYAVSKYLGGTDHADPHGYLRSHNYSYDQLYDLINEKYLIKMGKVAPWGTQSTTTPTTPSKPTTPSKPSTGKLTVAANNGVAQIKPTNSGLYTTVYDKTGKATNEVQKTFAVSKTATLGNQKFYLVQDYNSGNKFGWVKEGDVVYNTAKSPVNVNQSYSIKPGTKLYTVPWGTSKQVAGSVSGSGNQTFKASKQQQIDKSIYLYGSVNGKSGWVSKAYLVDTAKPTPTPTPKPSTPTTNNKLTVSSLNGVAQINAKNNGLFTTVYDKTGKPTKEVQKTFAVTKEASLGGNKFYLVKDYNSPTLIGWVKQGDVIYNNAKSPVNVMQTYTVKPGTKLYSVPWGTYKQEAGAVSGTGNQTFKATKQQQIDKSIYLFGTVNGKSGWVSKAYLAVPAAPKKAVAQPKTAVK

His-AmdR1R2-B [2] = molecular target: T1, His-AmdR1R2-B; assay: SPR, Biacore T-200; immobilized (captured) mAb, soluble His-AmdR1R2-B; average
Procedure: (§1) The capture (association, t=0 to 120 sec) and release (dissociation, t=120 to 420 sec) phases are presented. […] Measurements were made according the manufacturer's instructions and kinetic data were analyzed using biomolecular interaction analysis (BIA) evaluation software (version 3.1) from Biacore AB.
(§2) The affinity of immobilized anti-Amd mAbs for soluble His-AmdR1R2-B was measured using surface plasmon resonance technology on a Biacore T-200.

His-AmdR1R2-B [3] = molecular target: T1, His-AmdR1R2-B; assay: SPR, Biacore T-200; mAb captured by rabbit anti-mouse Fc IgG on a CM-5 chip, Amd at 1.56 to 25 nM; the single run shown in FIG. 4
Procedure: as §1, §2

His-AmdR1R2-B [4] = molecular target: T1, His-AmdR1R2-B; assay: SPR (Biacore T-200): Ab 1.6 (20nM) captured on immobilized rabbit anti-mouse Fc (RamFc), soluble Amd flowed at 1.56 to 25 nM
Procedure: as §1, §2

His-AmdR1R2-B [5] = molecular target: T1, His-AmdR1R2-B; assay: SPR, Biacore T-200; immobilized (captured) mAb, soluble His-AmdR1R2-B
Procedure: as §1, §2

Row | Binder | Kd (His-AmdR1R2-B [5]) [nM] | also measured
1 | B1 | – | IC50 (read off the curve) (His-AmdR1R2-B [1]): ~2 µg/mL; Kd (His-AmdR1R2-B [2]): 2.1 nM; Kd (His-AmdR1R2-B [3]): ~1 nM; Kd (His-AmdR1R2-B [4]): 1.03 nM
2 | B2 | 2.5 | –
3 | B3 | 2.6 | –
4 | B4 | 3.4 | –
5 | B5 | 1.4 | –
